The supplement of paper PMC9112550, “Optimization of the antimicrobial peptide Bac7 by deep mutational scanning” (BMC Biology, 2022)

System: Escherichia coli TOP10
Assay: shrunken log2 fold change of peptide-encoding DNA abundance (4.5 h post-induction vs induction); higher = less antimicrobial activity (less host growth inhibition)
Conditions: time post-induction: 4.5 h; library: site-saturation at positions 5, 18, 19, 20
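Note: peptides expressed intracellularly from a pBAD plasmid library in pooled LB shake-flask culture, induced with 0.3% L-arabinose, DNA abundance read by NGS, three biological replicates, DESeq2 with apeglm shrinkage.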

Row | Sequence | shrunken log2 fold change
1 | RRIRHRPPRLPRPRPRPIFPPRP | 0.033
2 | RRIRMRPPRLPRPRPRPCKEPRP | -0.00822
3 | RRIRCRPPRLPRPRPRPHKLPRP | -0.436
4 | RRIRCRPPRLPRPRPRPTNNPRP | -0.619
5 | RRIRPRPPRLPRPRPRPHSRPRP | -0.198
6 | RRIRHRPPRLPRPRPRPHTGPRP | -0.226
7 | RRIRARPPRLPRPRPRPEANPRP | 1.69
8 | RRIRHRPPRLPRPRPRPENSPRP | -0.304
9 | RRIRKRPPRLPRPRPRPTQVPRP | 0.312
10 | RRIRARPPRLPRPRPRPTLIPRP | 0.573
11 | RRIRDRPPRLPRPRPRPVCPPRP | -0.153
12 | RRIRMRPPRLPRPRPRPVWGPRP | 0.185
13 | RRIRCRPPRLPRPRPRPITSPRP | 0.0215
14 | RRIRRRPPRLPRPRPRPTWHPRP | 0.429
15 | RRIRPRPPRLPRPRPRPTNQPRP | -0.182
16 | RRIRQRPPRLPRPRPRPTALPRP | -0.0491
17 | RRIRHRPPRLPRPRPRPDLIPRP | -0.0224
18 | RRIRERPPRLPRPRPRPLQNPRP | -0.116
19 | RRIRGRPPRLPRPRPRPVSCPRP | 0.885
20 | RRIRGRPPRLPRPRPRPIDAPRP | 0.674

Row | Sequence | shrunken log2 fold change
21 | RRIRARPPRLPRPRPRPMGLPRP | 0.00193
22 | RRIRLRPPRLPRPRPRPKRYPRP | 0.0464
23 | RRIRGRPPRLPRPRPRPNKGPRP | -0.0466
24 | RRIRYRPPRLPRPRPRPSPSPRP | -0.269
25 | RRIRYRPPRLPRPRPRPYQLPRP | -0.00146
26 | RRIRPRPPRLPRPRPRPQAIPRP | 0.186
27 | RRIRIRPPRLPRPRPRPCQVPRP | -0.0176
28 | RRIRQRPPRLPRPRPRPVTTPRP | 0.0606
29 | RRIRPRPPRLPRPRPRPRWHPRP | 0.186
30 | RRIRYRPPRLPRPRPRPDWWPRP | 0.0124
31 | RRIRERPPRLPRPRPRPEEAPRP | 0.353
32 | RRIRGRPPRLPRPRPRPPCWPRP | 1.09
33 | RRIRHRPPRLPRPRPRPAFPPRP | 0.46
34 | RRIRLRPPRLPRPRPRPWFEPRP | -0.218
35 | RRIRHRPPRLPRPRPRPWLRPRP | -0.0716
36 | RRIRMRPPRLPRPRPRPDDNPRP | 2.27
37 | RRIRMRPPRLPRPRPRPMSVPRP | -0.00306
38 | RRIRIRPPRLPRPRPRPSDYPRP | -0.385
39 | RRIRVRPPRLPRPRPRPVDMPRP | 0.00782
40 | RRIRHRPPRLPRPRPRPRYKPRP | -0.424

Row | Sequence | shrunken log2 fold change
41 | RRIRPRPPRLPRPRPRPFEVPRP | 0.0802
42 | RRIRERPPRLPRPRPRPIFQPRP | -0.00561
43 | RRIRKRPPRLPRPRPRPHFFPRP | 0.101
44 | RRIRDRPPRLPRPRPRPTNPPRP | -0.417
45 | RRIRWRPPRLPRPRPRPEYDPRP | 0.695
46 | RRIRERPPRLPRPRPRPYKKPRP | 0.0359
47 | RRIRYRPPRLPRPRPRPVASPRP | -0.163
48 | RRIRSRPPRLPRPRPRPGSEPRP | 0.593
49 | RRIRARPPRLPRPRPRPAQTPRP | 0.057
50 | RRIRFRPPRLPRPRPRPIECPRP | -0.00174
51 | RRIRKRPPRLPRPRPRPELWPRP | 1.42
52 | RRIRKRPPRLPRPRPRPVGHPRP | 0.224
53 | RRIRMRPPRLPRPRPRPIWYPRP | -0.158
54 | RRIRWRPPRLPRPRPRPQTLPRP | 0.132
55 | RRIRARPPRLPRPRPRPWPSPRP | -0.0645
56 | RRIRTRPPRLPRPRPRPHSYPRP | -1.23
57 | RRIRARPPRLPRPRPRPDSFPRP | -0.0867
58 | RRIRNRPPRLPRPRPRPGPPPRP | 0.581
59 | RRIRGRPPRLPRPRPRPWHHPRP | -0.26
60 | RRIRMRPPRLPRPRPRPDKNPRP | 0.373
